From patent US20040259802

Molecular target: T1, 19-mer (SEQ ID NO:11) cleavage domain peptide
T1 chain: PRCGNPDVANYNFFPRKPK

B1: Proenzyme pro-MMP-9 (protein)
chain: APRQRQSTLVLFPGDLRTNLTDRQLAEEYLYRYGYTRVAEMRGESKSLGPALLLLQKQLSLPETGELDSATLKAMRTPRCGVPDLGRFQTFEGDLKWHHHNITYWIQNYSEDLPRAVIDDAFARAFALWSAVTPLTFTRVYSRDADIVIQFGVAEHGDGYPFDGKDGLLAHAFPPGPGIQGDAHFDDDELWSLGKGVVVPTRFGNADGAACHFPFIFEGRSYSACTTDGRSDGLPWCSTTANYDTDDRFGFCPSERLYTQDGNADGKPCQFPFIFQGQSYSACTTDGRSDGYRWCATTANYDRDKLFGFCPTRADSTVMGGNSAGELCVFPFTFLGKEYSTCTSEGRGDGRLWCATTSNFDSDKKWGFCPDQGYSLFLVAAHEFGHALGLDHSSVPEALMYPMYRFTEGPPLHKDDVNGIRHLYGPRPEPEPRPPTTTTPQPTAPPTVCPTGPPTVHPSERPTAGPTGPPSAGPTGPPTAGPSTATTVPLSPVDDACNVNIFDAIAEIGNQLYLFKDGKYWRFSEGRGSRPQGPFLIADKWPALPRKLDSVFEERLSKKLFFFSGRQVWVYTGASVLGPRRLDKLGLGADVAQVTGALRSGRGKMLLFSGRRLWRFDVKAQMVDPRSASEVDRMFPGVPLDTHDVFQYREKAYFCQDRFYWRVSSRSELNQVDQVGYVTYDILQCPED
conversion of pro-MMP-9 into prodomain and active enzyme by stromilysin (HPLC splicing assay): Titrating the standard splicing reaction with the 19-mer (SEQ ID NO:11) peptide prevents the conversion of pro-MMP-9 into the prodomain and the active enzyme. Splicing can be inhibited in a dose dependent manner with micromolar 19-mer
